Data from article PMC9675976, “Selfish uptake versus extracellular arabinoxylan degradation in the primary degrader Ruminiclostridium cellulolyticum, a new string to its bow” (Biotechnology for Biofuels and Bioproducts, 2022).

What was measured:
XuaH = XuaH (Ruminiclostridium cellulolyticum, UniProt B8I0P1); assay: Esterase activity of XuaH; assay type: biochemical; settings: 37 °C, 25 mM phosphate buffer pH 7, XuaH 0.1 µM for 1-naphthyl acetate
Method: (§1) Esterase activity was tested using 1-Naphthyl acetate. Release of 1-Naphthol was monitored at 320 nm during 5 min at 37 °C in 25 mM phosphate buffer pH 7, with substrate final concentration ranging from 110 µM and 5.36 mM, and with XuaH (0.1 µM) or XuaJ (0.01 µM). Concentration of released 1-Naphthol during the first minute of the assay was determined based on 1-Naphthol standard curve.

XuaJ = XuaJ (Ruminiclostridium cellulolyticum, UniProt B8I0P3); assay: Esterase activity of XuaJ; assay type: biochemical; settings: 37 °C, 25 mM phosphate buffer pH 7, XuaJ 0.01 µM for 1-naphthyl acetate
Method: as §1

XuaA [1] = target: T1, XuaA (Ruminiclostridium cellulolyticum, UniProt B8I0N3); assay: Thermal shift assay (TSA) of XuaA with carbohydrate ligands; assay type: binding; settings: XuaA 8 µM, ligand 1 mM or 0.1 mM (X4, X5, X6), 25 mM phosphate buffer pH 7; mean of at least 2 experiments
Method: (§2) XOS and AXOS were purchased from Megazyme: A^3X (ref O-A^3X), A^2XX (ref O-A^2XX), A^2,3XX (ref O-A^2,3XX), XA^3XX (ref O-XA^3XX), XA^2,3XX (ref O-XA^2,3XX), XAXXMIX (ref O-XAXXMIX), X2 to X6 (ref O-XBI, O-XTR, O-XTE, O-XPE, O-XHE, respectively) (Fig. 3) (Megazyme). For TSA experiments, monosaccharides, XOS and AXOS were tested at a final concentration of 1 mM or 0.1 mM (for X4, X5, and X6). Experiments were performed with XuaA (8 µM) in 25 mM phosphate buffer pH 7 and SYPRO orange (1/500) (Sigma-Aldrich). Melting curves were monitored from 10 to 90 °C with 0.5 °C increment every 30 s, on CFX96 touch real-time PCR detection system (Bio-Rad, France) and analyzed using the Bio-Rad CFX Maestro 1.1 software.

XuaA [2] = target: T1, XuaA; assay: Isothermal titration calorimetry (ITC) of XuaA with ligands; assay type: binding; settings: 25 °C, 25 mM phosphate buffer pH 7.0
Method: as §2
A MicroCal PEAQ-ITC (Malvern, Malvern, UK) was used to determine thermodynamic parameters of the binding at 25 °C in 25 mM phosphate buffer, pH 7.0. The ligands (50–2000 µM) were injected (one injection with 0.4 µL followed by 18 injections of 2 µL) in the cell containing XuaA (5–50 µM) in the same buffer. At least one duplicate was performed.

XuaD = XuaD (Ruminiclostridium cellulolyticum, UniProt B8I0N6); assay: Enzyme activity of XuaD on AXOS (HPAEC-PAD); assay type: biochemical
Method: (§3) XuaD, E, F, G (0.01 to 1 µM) were tested with different AXOS and/or XOS at 1 mM with incubation times varying from 5 min to 24 h. Enzymes (10 nM) were incubated at 37 °C for 5 min, kinetic parameters of XuaD were determined with both A^2,3XX and A^2XX, with sugar concentration varying from 0.05 to 8 mM, and XuaE with A^2,3XX with sugar concentration varying from 0.05 to 1 mM (at least 9 concentration point). Substrates and released products were quantified by high performance anion exchange chromatography coupled with pulsed amperometric detection on an ICS-3000 using a PA1 column (Thermo Scientific). Sugars were eluted with the buffers 0.1 M NaOH and 0.5 M sodium acetate + 0.1 M NaOH as the eluants A and B, respectively, using the multistep procedure as follows: isochratic separation (5 min, 95% A + 5% B), separation gradient (8 min, 10–37% B), column wash (2 min, 99% B), and subsequent column equilibration (2.5 min, 95% A + 5% B).

XuaE = XuaE (Ruminiclostridium cellulolyticum, UniProt B8I0N8); assay: Enzyme activity of XuaE on AXOS (HPAEC-PAD); assay type: biochemical; settings: HPAEC-PAD
Method: as §3

XuaF = assay: Enzyme activity of XuaF on AXOS and XOS (HPAEC-PAD); assay type: biochemical, Ruminiclostridium cellulolyticum; settings: substrate 1 mM, 37 °C
Method: as §3

XuaG = assay: Enzyme activity of XuaG on AXOS and XOS (HPAEC-PAD); assay type: biochemical, Ruminiclostridium cellulolyticum; settings: substrate 1 mM, 37 °C
Method: as §3

[3] = substrate: OC[C@@H]1O[C@@H](O[C@@H]2[C@@H](O[C@@H]3O[C@@H](CO)[C@H](O)[C@H]3O)[C@H](O[C@@H]3CO[C@@H](O[C@@H]4COC(O)[C@H](O)[C@H]4O)[C@H](O)[C@H]3O)OC[C@H]2O)[C@H](O)[C@H]1O; assay: Enzyme activity of XuaD on AXOS (HPAEC-PAD); assay type: biochemical, Ruminiclostridium cellulolyticum; settings: other: 37 °C, substrate 0.05 to 8 mM
Method: as §3

[4] = substrate: OC[C@@H]1O[C@@H](O[C@H]2[C@H](O[C@@H]3CO[C@@H](O[C@@H]4COC(O)[C@H](O)[C@H]4O)[C@H](O)[C@H]3O)OC[C@@H](O)[C@@H]2O)[C@H](O)[C@H]1O; assay: Enzyme activity of XuaD on AXOS (HPAEC-PAD); assay type: biochemical, Ruminiclostridium cellulolyticum; settings: other: 37 °C, substrate 0.05 to 8 mM
Method: as §3

[5] = substrate: OC[C@@H]1O[C@@H](O[C@@H]2[C@@H](O[C@@H]3O[C@@H](CO)[C@H](O)[C@H]3O)[C@H](O[C@@H]3CO[C@@H](O[C@@H]4COC(O)[C@H](O)[C@H]4O)[C@H](O)[C@H]3O)OC[C@H]2O)[C@H](O)[C@H]1O; assay: Enzyme activity of XuaE on AXOS (HPAEC-PAD); assay type: biochemical, Ruminiclostridium cellulolyticum; settings: other: 37 °C, substrate 0.05 to 1 mM
Method: as §3

[6] = substrate: CC(=O)Oc1cccc2ccccc12; assay: Esterase activity of XuaH; assay type: biochemical, Ruminiclostridium cellulolyticum; settings: other: 37 °C, pH 7, substrate 110 µM to 5.36 mM
Method: as §1

[7] = substrate: CC(=O)Oc1cccc2ccccc12; assay: Esterase activity of XuaJ; assay type: biochemical, Ruminiclostridium cellulolyticum; settings: other: 37 °C, pH 7, substrate 110 µM to 5.36 mM
Method: as §1

T1 sequence (B8I0N3 entry or part of it): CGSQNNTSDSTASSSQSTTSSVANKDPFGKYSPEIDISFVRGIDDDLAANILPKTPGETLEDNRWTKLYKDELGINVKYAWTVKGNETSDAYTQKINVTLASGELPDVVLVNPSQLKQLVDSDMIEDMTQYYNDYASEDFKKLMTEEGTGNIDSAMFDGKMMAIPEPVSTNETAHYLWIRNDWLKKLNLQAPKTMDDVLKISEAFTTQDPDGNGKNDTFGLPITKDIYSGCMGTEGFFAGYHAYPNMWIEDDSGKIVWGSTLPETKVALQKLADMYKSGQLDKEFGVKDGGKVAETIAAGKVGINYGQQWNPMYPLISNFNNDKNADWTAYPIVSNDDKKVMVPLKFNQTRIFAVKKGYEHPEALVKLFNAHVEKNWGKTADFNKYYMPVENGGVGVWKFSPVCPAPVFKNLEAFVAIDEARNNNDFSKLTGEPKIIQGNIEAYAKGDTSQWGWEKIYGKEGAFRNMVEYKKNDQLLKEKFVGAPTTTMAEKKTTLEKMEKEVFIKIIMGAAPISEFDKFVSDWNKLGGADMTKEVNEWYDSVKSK

## CC(=O)Oc1cccc2ccccc12 [1-Naphthyl acetate]
XuaH
  Specific activity (IU) of XuaH: IU: 3504.6 ± 18.9 IU/µmol of enzyme
XuaJ
  Specific activity (IU) of XuaJ: IU: 21130.4 ± 676.4 IU/µmol of enzyme

## OC[C@@H]1O[C@@H](O[C@@H]2[C@@H](O)[C@H](O[C@@H]3CO[C@@H](O[C@@H]4COC(O)[C@H](O)[C@H]4O)[C@H](O)[C@H]3O)OC[C@H]2O[C@@H]2OC[C@@H](O)[C@H](O)[C@H]2O)[C@H](O)[C@H]1O (some centres unmarked) [XA^3XX]
XuaA [1]
  TSA ∆T: 11.0 °C
XuaA [2]
  ITC -T∆S: 48.5 ± 5.02 kJ/mol
  ITC N (sites): 0.652 ± 2.83e-3 sites
  Kd: 0.0404 ± 0.0093 µM
XuaD; HPAEC-PAD
  Products released by XuaD: Products: Ara, X4
XuaD; substrate 1 mM, 37 °C
  Specific activity (IU) of XuaD: IU: 1218.9 ± 38.5 IU/µmol of enzyme
XuaE
  Products released by XuaE: Products: Ara, X4
XuaF
  Specific activity (IU) of XuaF: IU: 166.7 ± 12.8 IU/µmol of enzyme
XuaG
  Specific activity (IU) of XuaG: IU: 21.2 ± 0.2 IU/µmol of enzyme

B1: XuaD (Ruminiclostridium cellulolyticum H10) (protein)
chain: MVKMILNADIKKGKINKNIYGHFSEHLGRCIYEGLWVGEDSEIPNINGFRTDVVEALKKMKIPVLRWPGGCFADEYHWVDGIGPKENRPCMVNTHWGGVVENNHFGTHEFLELCEMLGAEPYICGNVGSGTVHEMQQWVEYMTFDGKSPMADLRRANGKEEPWRVKYFGVGNENWGCGGNMTAEFYADQYKRYATYVRNFGDNKIYKIAGGASVDDYHWTEVLMREAGKQMDGLSVHYYTRISKDWSEQGSATEFDENHWFSVMQNALFTEELVVRHSNIMDKYDPEKKVGMIVDEWGTWFAVEPGTNPGFLYQQNTMRDALVAGIHLNIFNNHCDRVQMANIAQMVNVLQAVILTEGKKMLLTPTYHVFDMYKVHQGAELLSLDFESPEYAYNGEKVPQLSASSSVDSEGKIHVTICNLNPSADVNIDIDLRGVKSKSSTGKIITSNAMNAKNTFEETTNVTIKNFEDINLENNHISGKIPSKSVVLLEIV
[3]
  Km: Km 1.8 ± 0.2 mM
  kcat: kcat 4191.3 ± 117.3 min^−1
  kcat/Km: kcat/Km 2388.2 ± 182.9 min^−1 mM^−1
[4]
  Km: Km 1.4 ± 0.3 mM
  kcat: kcat 3408.0 ± 356.6 min^−1
  kcat/Km: kcat/Km 2411.9 ± 303.3 min^−1 mM^−1

B2: XuaE (Ruminiclostridium cellulolyticum H10) (protein)
chain: MKIQNPIIWADMPDPDIIRVGDIYYMVSTTMFVMPGAPILKSKDLYHWELVSYVFNTIEDNDIYQLKNGKTAYGKGQWATSLRFFNGLYYACFVCHDMQKTYIYYTDDIEKSGWERYVINNVFHDMSFLFDNNRSYLIYGNGDIKIVELKDDLSGIKDGGVNQLLFSTPSENIMLRCEGCRAYKINGYYYLLFIEWPNDGNSRRRVVCYRSKDLLGEYDRKILLDDDMEYQNQGIAQGAIIDTPEGEWYSILFQDHGAVGRIPYLLPVSWEDDWPNLGVNEKVPESFEIPFEAYDTKPLIVSDSFNHNENKLDLRWQWNHNPEEDCWSFTEHPGYLRLRTQSLATDILTARNTLTQRTSGPQCAFSVELKTEGMKAGDYAGLVALQGNYGAIGIRADENNLKRIIVSKKGSDGRQIEEEYRLFADSRILIKIEFDFRNSSDIAKFYYSQDGIGWIKLGSDLHMTYTLDLFIGYRIGIFYYSQKAAGGFADFRNFSYESRQ
[5]
  Km: Km 0.1 ± 0.003 mM
  kcat: kcat 2253.5 ± 142.1 min^−1
  kcat/Km: kcat/Km 23137.8 ± 1355.0 min^−1 mM^−1

B3: XuaH (Ruminiclostridium cellulolyticum H10) (protein)
chain: MAIFQANFFAKTMKRSICFNALIPNDKYQAPDQEIKDEPKGPMKSIYLLHGYSGNHTDWLTWTKIQELSLKYNIAVFMPSGENFFYVDDEEVGAYYGELIGNELVDYTRSTFHLSDKREDTFIGGLSMGGYGAIRNGLKYSERFGRIIALSSALITNQIAGITPDFKGPVADYPYYRRVFGDLDRLLGGDKDPEALIRSLKEKNADIPKIYMACGTEDFLINENRELHEFLVSEKVEHTYIEDSGVHDWKFWNEYIDKGLAWATE
[6]
  Km: Km: 3.5 ± 1.1 mM
  kcat: kcat: 5435.7 ± 846.4 min^−1
  kcat/Km: kcat/Km: 1628.1 ± 295.7 min^−1 mM^−1

B4: XuaJ (Ruminiclostridium cellulolyticum H10) (protein)
chain: MGIILNSNRPKIRLPRIISDGMVLQRNTDVKIWGWASPGEAVTVRFIGKAYHAFADDSGEWFVRLEQAKAGGPYDMYIETEESLEKITIKNILMGDVWLCSGQSNMEMKMDSVKDTYPDEIVHSCNDYIRHFLVPVKYDFEKPQTDLEAGIWEAANPESILDFTATGYFFALKLFEKYNIPIGLINASLGGSPAEAWLSENALREFPEHYESAKQLSNRDYLDKVLREDQESAEAWYTALNQNDEGLKSNDIPFHDTEYDAPFWQNIKVPSYWEDEGVGNFNGVVWFRKEIDIPSTLADKPARLVLGNIVDEDTAYINGIEVGTTPNQYITRKYSIQEGLLKEGKNTIVLRVVNTAGKGGFYKDKPYQLEIGDNIIELSGEWQYMIGAKSSPMPAPAFVQWRPLGLYNGMIAPVTSYSIKGFIWYQGESNTKNPGEYENLLKALIADWRQKWNMGNLPFLYVQLPNFMEASEIPMESSWAELREAQRRTLSVPCTGMAVAIDLGEWNDIHPVNKKDVGFRLALAAMKTAYRDKTIVAYGPMYQSGKIDGNRIILSFTDTGSGLTVKNGDRPEAFAIAGADRTFVRADAEIIGDSVAVWSEKVSHPVYVKYAWADNPADANLYNLEGLPASPFTTE
[7]
  Km: Km: 0.2 ± 0.02 mM
  kcat: kcat: 21380.0 ± 440.0 min^-1
  kcat/Km: kcat/Km: 88703.9 ± 7849.6 min^-1 mM^-1
